Among the data in the supplement of paper PMC10567573 are protein stability index values, retold here.

The series is described as follows: protein stability index of a GFP-peptide fusion (GPS, HEK-293T) (PSI 1-6); higher = more stable.
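Also: lentivirally expressed fusions sorted by FACS into six bins by GFP to DsRed ratio, PSI derived from sequencing read proportions per bin multiplied by bin number.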

B1: PDS5B WT (peptide)
chain: ITYPPGVKEISDKISKEEMVRRLK
For B1, the protein stability index (parent: IOH27247_3, c terminus: a fixed tail appended) came to 3.62.

B2: NEUROD6 WT (peptide)
chain: YHSPELTTPPGHGTLDNSKSMKPY
As to B2, the protein stability index (parent: IOH27687_36, c terminus: a fixed tail appended) turned out to be 2.22.

B3: APBB1IP WT (peptide)
chain: LPLPPPPPEPLSQVSMWDQRWQDH
On to B3, for which the protein stability index (parent: IOH27581_24, c terminus: a fixed tail appended) was found to be 3.74.

B4: APBB1IP WT (peptide)
chain: FNYSVGFKDLNESLNALEDQDLDA
As to B4, under “parent: IOH27581_8, c terminus: a fixed tail appended”, the protein stability index was determined as 4.47.

B5: C10orf62 WT (peptide)
chain: MLWVQRKRRRKETSECPSDKDKSP
With B5, the protein stability index (parent: IOH27431_1, c terminus: a fixed tail appended) was 2.93.

B6: DCAF4 WT (peptide)
chain: TTKCVRQYEGHVNEYAYLPLHVHE
Regarding B6, the protein stability index (parent: IOH28737_51, c terminus: a fixed tail appended) turned out to be 2.65.

B7: DLC1 WT (peptide)
chain: KRSWEEHVTHWMGQPFNSDDRNTA
Consider B7, for which, under “parent: IOH28890_2, c terminus: a fixed tail appended”, the protein stability index is 2.65.

B8: CPOX WT (peptide)
chain: HAPTIHFNYRYFEVEEADGNKQWW
Turning to B8, the protein stability index (parent: IOH27839_43, c terminus: a fixed tail appended) was 2.33.

B9: APBB1IP WT (peptide)
chain: PPEPLSQVSMWDQRWQDHQPLLPI
Take B9: where the note is “parent: IOH27581_25, c terminus: a fixed tail appended”, the protein stability index was 3.15.

B10: C6orf223 WT (peptide)
chain: TLARMSRRTRGPVERAAAAAAAAA
With B10, the protein stability index (parent: IOH28619_19, c terminus: a fixed tail appended) is 2.35.

B11: ZNF8 WT (peptide)
chain: VHVIGVEEPSVGASMLFDIREST
Turning to B11, the protein stability index (parent: IOH28719_96, c terminus: native) amounted to 2.07.

B12: FBF1 WT (peptide)
chain: LQRASILDMRRDHEEQLQRLKLLK
For the protein B12, the protein stability index (parent: IOH27821_117, c terminus: a fixed tail appended) worked out at 3.67.

B13: FBF1 WT (peptide)
chain: YQRPQDSEDMWGDEDFTFGAYQPT
For the protein B13, the protein stability index (parent: IOH27821_46, c terminus: a fixed tail appended) was 2.9.

B14: STX11 WT (peptide)
chain: FQRAMHDYNQAEMKQRDNCKIRIQ
Regarding B14, the protein stability index (parent: IOH27407_24, c terminus: a fixed tail appended) is 2.68.

B15: ZNF8 WT (peptide)
chain: RIHTGERPYMCKECGKAFSQNSSL
For B15, the protein stability index (parent: IOH28719_47, c terminus: a fixed tail appended) worked out at 2.6.

B16: WDFY1 WT (peptide)
chain: FWNIKQMWDTKTLGLRQHHCRKCG
With B16, the protein stability index (parent: IOH27506_50, c terminus: a fixed tail appended) came to 2.1.

B17: DCAF4 WT (peptide)
chain: DSHILLCLMGLAETPGCATLLPAS
Regarding B17, the protein stability index (parent: IOH28737_24, c terminus: a fixed tail appended) came to 2.86.

B18: DLC1 WT (peptide)
chain: HVTHWMGQPFNSDDRNTACHHGLV
As for B18, the protein stability index (parent: IOH28890_3, c terminus: a fixed tail appended) was 2.14.

B19: KRT34 WT (peptide)
chain: PTVDLNQVLNETRSQYEALVETNR
With B19, the protein stability index (parent: IOH28032_44, c terminus: a fixed tail appended) stood at 3.1.

B20: WDFY1 WT (peptide)
chain: LLIPKEDGVITASEDRTIRVWLKR
As for B20, where the note is “parent: IOH27506_6, c terminus: a fixed tail appended”, the protein stability index was found to be 2.04.

B21: C10orf62 WT (peptide)
chain: RALEEVEMKLQKNFLTQRENTIAG
For B21, for the setting “parent: IOH27431_29, c terminus: a fixed tail appended”, the protein stability index amounted to 3.73.

B22: MAGEA6 WT (peptide)
chain: KISGGPRISYPLLHEWALREGEE
For the protein B22, the protein stability index (parent: IOH28024_53, c terminus: native) amounted to 2.93.

B23: C10orf62 WT (peptide)
chain: GHSHHSHHGHPSHQSHSLPNRRH
For B23, the protein stability index (parent: IOH27431_35, c terminus: native) came out at 2.57.

B24: P2RY14 WT (peptide)
chain: KKIFKSHLKSSRNSTSVKKKSSRN
Turning to B24, the protein stability index (parent: IOH27142_36, c terminus: a fixed tail appended) was found to be 3.96.

B25: SMG5 WT (peptide)
chain: TRKLSPGKKRCKDIKRLLVNFMYL
As for B25, for the setting “parent: IOH27102_46, c terminus: a fixed tail appended”, the protein stability index was 2.32.

B26: GAGE1 WT (peptide)
chain: QPPEMIGPMRPEQFSDEVEPATPE
As to B26, the protein stability index (parent: IOH27258_4, c terminus: a fixed tail appended) worked out at 5.04.

B27: ZNF8 WT (peptide)
chain: RTHTGEKPYTCSVCGKSFSRTTCL
With B27, the protein stability index (parent: IOH28719_61, c terminus: a fixed tail appended) is 2.43.

B28: FAM116A WT (peptide)
chain: TVHEVDIFRCFCPVFLHSQMLWEL
B28: the protein stability index (parent: IOH27644_45, c terminus: a fixed tail appended) stood at 3.

B29: OR3A1 WT (peptide)
chain: PMYFFLGNLSVLDVGCISVTVPSM
Turning to B29, the protein stability index (parent: IOH28412_11, c terminus: a fixed tail appended) amounted to 2.98.

B30: APBB1IP WT (peptide)
chain: ADPVLDLPLPPPPPEPLSQVSMWD
For B30, the protein stability index (parent: IOH27581_23, c terminus: a fixed tail appended) was 4.59.

B31: CCDC89 WT (peptide)
chain: LNAELEEKMMQEAEKLKAQGEYSR
For B31, under “parent: IOH27358_17, c terminus: a fixed tail appended”, the protein stability index amounted to 4.98.

B32: KRT34 WT (peptide)
chain: YQSYFKTIEELQQKILCAKAENAR
Consider B32, for which the protein stability index (parent: IOH28032_25, c terminus: a fixed tail appended) stood at 1.83.

B33: RSPH3 WT (peptide)
chain: QRLEEQERRHREEKERRKKQQWEI
Take B33: the protein stability index (parent: IOH27062_61, c terminus: a fixed tail appended) was found to be 4.62.

B34: P2RY14 WT (peptide)
chain: KLLSVIVWMLMLLLAVPNIILTNQ
As to B34, the protein stability index (parent: IOH27142_24, c terminus: a fixed tail appended) worked out at 3.1.

B35: ZNF8 WT (peptide)
chain: KPYTCSVCGKSFSRTTCLFLHLRT
In the case of B35, the protein stability index (parent: IOH28719_62, c terminus: a fixed tail appended) stood at 2.03.

B36: ANKRD44 WT (peptide)
chain: FHCIETLVTTGANVNETDDWGRTA
On to B36, for which the protein stability index (parent: IOH28621_76, c terminus: a fixed tail appended) was found to be 1.99.

B37: DCAF4 WT (peptide)
chain: PGIDRPGMLCSFRIPGAWSCAWSL
As for B37, the protein stability index (parent: IOH28737_29, c terminus: a fixed tail appended) came out at 2.84.

B38: APBB1IP WT (peptide)
chain: SQVSMWDQRWQDHQPLLPITDVP
As to B38, the protein stability index (parent: IOH27581_27, c terminus: native) stood at 2.45.

B39: EIF5 WT (peptide)
chain: KQTIGNSCKACGYRGMLDTHHKLC
B39: for the setting “parent: IOH27132_20, c terminus: a fixed tail appended”, the protein stability index came out at 3.1.

B40: RHOBTB1 WT (peptide)
chain: TFGDHHKDRRFAYGRSDVVVLCFS
B40: the protein stability index (parent: IOH27118_15, c terminus: a fixed tail appended) is 1.99.

B41: GAGE1 WT (peptide)
chain: RPRRYVQPPEMIGPMRPEQFSDEV
Take B41: the protein stability index (parent: IOH27258_3, c terminus: a fixed tail appended) was 3.67.

B42: ZNF8 WT (peptide)
chain: SLGRHKRTHTGEKPYTCSVCGKSF
With B42, the protein stability index (parent: IOH28719_60, c terminus: a fixed tail appended) was 2.55.

B43: RPAIN WT (peptide)
chain: ISEYEKSLQFDEKCLSIMLAEWEA
Take B43: the protein stability index (parent: IOH28888_19, c terminus: a fixed tail appended) amounted to 1.85.

B44: C10orf62 WT (peptide)
chain: TSECPSDKDKSPESHKAKNESWIK
As for B44, the protein stability index (parent: IOH27431_3, c terminus: a fixed tail appended) was determined as 3.1.

B45: SMG5 WT (peptide)
chain: FVSIAQSEQESLLQQAQAQFRMAQ
Take B45: the protein stability index (parent: IOH27102_133, c terminus: a fixed tail appended) was 2.09.

B46: FBF1 WT (peptide)
chain: FGDSPKAEKRQIGDQEGPRPARST
B46: the protein stability index (parent: IOH27821_37, c terminus: a fixed tail appended) was determined as 4.98.

B47: SMG5 WT (peptide)
chain: QEKLQVLMAEGLLPAVKVFLDWLR
B47: under “parent: IOH27102_108, c terminus: a fixed tail appended”, the protein stability index stood at 2.44.

B48: WASL WT (peptide)
chain: YPPPPPALPSSAPSGPPPPPPSVL
Regarding B48, where the note is “parent: IOH28816_58, c terminus: a fixed tail appended”, the protein stability index is 4.3.

B49: FOXJ1 WT (peptide)
chain: SAIYKWITDNFCYFRHADPTWQNS
With B49, for the setting “parent: IOH27374_25, c terminus: a fixed tail appended”, the protein stability index turned out to be 2.69.

B50: FBF1 WT (peptide)
chain: QLQCSPAELQAELLHSQARLAELE
On to B50, for which, under “parent: IOH27821_96, c terminus: a fixed tail appended”, the protein stability index came out at 3.22.

B51: PDS5B WT (peptide)
chain: IYKKYALQSAAGKDAAKQIAWIKD
Take B51: the protein stability index (parent: IOH27247_70, c terminus: a fixed tail appended) was determined as 2.16.

B52: JUNB WT (peptide)
chain: FVKALDDLHKMNHVTPPNVSLGAT
B52: the protein stability index (parent: IOH27814_24, c terminus: a fixed tail appended) stood at 1.94.

B53: SMG5 WT (peptide)
chain: TNPDLIIVCAQSSQSLWNRLSVLL
Consider B53, for which the protein stability index (parent: IOH27102_112, c terminus: a fixed tail appended) amounted to 2.77.
